Measurements taken from US20130196320A1, “METHOD FOR IMPROVING CLEAVAGE OF DNA BY ENDONUCLEASE SENSITIVE TO METHYLATION” (CELLECTIS, priority 2010, published 2013).

Legend:
[1] = tested on: C1221 DNA target; test: In vitro cleavage assay with C1221 duplex, increasing meganuclease concentration; assay type: biochemical
Protocol: FIG. 2: In vitro cleavage of unmethylated or methylated C1221 by I-CreI. A constant amount of C1221 (50 nM) was incubated with increasing concentrations of I-CreI (0 to 2 μM) in reaction buffer (10 mM Tris-HCl, 150 mM NaCl, 10 mM MgCl2, pH8) for an hour at 37° C. The reaction was stopped and the remaining uncleaved C1221 was quantify and plotted as function of I-CreI concentration.
FIG. 3: In vitro cleavage of unmethylated or methylated C1221 by I-CreI D75N. 50 nM C1221 containing either 0, 1, 2 or 3 methylated CG was incubated with increasing concentrations of I-CreI D75N (0 to 2 μM) in reaction buffer (10 mM Tris-HCl, 150 mM NaCl, 10 mM MgCl2, pH8) for an hour at 37° C. The reaction was stopped and cleaved and uncleaved C1221 (top and bottom panel respectively) were quantify and plotted as function of I-CreI D75N concentration.
To investigate the influence of C1221 methylation on the nuclease activity of I-CreI, an in vitro cleavage assay with either unmethylated or fully methylated C1221 duplex (SEQ ID NOs: 4-5 and 12-13 respectively) was performed. A constant amount of C1221 duplex (50 nM) was incubated with increasing concentration of I-CreI (0 to 2 μM) in a total volume of 25 μL of reaction buffer (10 mM Tris-HCl, 150 mM NaCl, 10 mM MgCl2, pH8). Cleavage reaction was allowed to proceed 1 hour at 37° C. and then stopped by addition of 5 μL of 6× stop buffer (45% glycerol, 95 mM EDTA, 1.5% (w/v) SDS, 1.5 mg/mL proteinase K and 0.048% (w/v) bromophenol blue) followed by an hour incubation at 37° C. Cleaved and uncleaved DNA products were separated by PAGE using a TGX Any kD precast gel (Bio-Rad), stained with SYBR Green and then quantified using Quantity One software (Bio-Rad).
To investigate the influence of C1221 methylation on the nuclease activity of I-CreI D75N, in vitro cleavage assay with C1221 duplex containing either 0, 1, 2 or 3 methylated CG (SEQ ID NOs: 4-5, 6-7, 8-9, 10-11 respectively) was performed, according to the procedure described for I-CreI wild type.

[2] = tested on: CAPNS1 target in human CAPNS1 gene, 293H cells; test: Meganuclease-induced mutagenesis assay at CAPNS1 recognition site; assay type: cell-based; conditions: CAPNS1 meganuclease
Protocol: (§1) The human 293H cells (ATCC) were plated at a density of 1.2×10^6 cells per 10 cm dish in complete medium (DMEM supplemented with 2 mM L-glutamine, penicillin (100 IU/ml), streptomycin (100 μg/ml), amphotericin B (Fongizone: 0.25 μg/ml, Invitrogen-Life Science) and 10% FBS). The cells were pre-treated with 5-aza-deoxycytidine at 0.2 μM or 1 μM, 48 hours before transfection and the treatment was maintained 48 hours post-transfection. The medium was changed every day. The cells were transfected with 3 μg of DNA plasmids encoding meganuclease for RAG or 2.5 μg of each monomer CAPNS1 using Lipofectamine 2000 transfection reagent (Invitrogen) according to the manufacturer's protocol.
(§2) The efficiency of the meganuclease to promote mutagenesis at its endogenous recognition site was evaluated by sequencing the DNA surrounding the meganuclease cleavage site. Two days post-transfection, genomic DNA was extracted. 200 ng of genomic DNA were used to amplify (PCR amplification) the endogenous locus surrounding the meganuclease cleavage site. PCR amplification is performed to obtain a fragment flanked by specific adaptor sequences [adaptor A: 5′-[…]-NNNN-3′(SEQ ID NO: 46) and adaptor B, 5′-[…]-3′ (SEQ ID NO: 47)] provided by the company offering sequencing service (GATC Biotech AG, Germany) on the 454 sequencing system (454 Life Sciences). The primers sequences used for PCR amplification were:
(§3) RAG_R1: 5′-[…]-[…]-3′ (SEQ ID NO: 58) and CAPNS1_J3: 5′-[…]-NNNN-[…] (SEQ ID NO: 59) and CAPNS1_R3: 5′-[…]-[…]-3′ (SEQ ID NO: 60). Sequences specific to the locus are underlined. The sequence NNNN in primer F1 is a Barcode sequence (Tag) needed to link the sequence with a PCR product. The percentage of PCR fragments carrying insertion or deletion at the meganuclease cleavage site is related to the mutagenesis induced by the meganuclease through NHEJ pathway in a cell population, and therefore correlates with the meganuclease activity at its endogenous recognition site. 5000 to 10000 sequences were analyzed per conditions.

[3] = tested on: RAG target in human RAG1 gene, 293H cells; test: Meganuclease-induced mutagenesis assay at RAG recognition site; assay type: cell-based; conditions: RAG meganuclease
Protocol: as §1, §2
RAG_F1: 5′-[…]-NNNN-[…] (SEQ ID NO: 57) and
as §3

B1: I-CreI D75N: I-CreI D75N meganuclease variant, SEQ ID NO: 22 (protein)
chain: MANTKYNKEFLLYLAGFVDGDGSIIAQIKPNQSYKFKHQLSLAFQVTQKTQRRWFLDKLVDEIGVGYVRDRGSVSDYILSEIKPLHNFLTQLQPFLKLKQKQANLVLKIIWRLPSAKESPDKFLEVCTWVDQIAALNDSKTRKTTSETVRAVLDSLSEKKKSSPAAD
Question: How did the “increase of C50” value ([1]; C1221 with one methyl group on both strand vs unmethylated) turn out when B1 was run?
Answer: about 3 folds

Question: And the “increase of C50” value ([1]; C1221 with three methyl groups vs unmethylated)?
Answer: more than 10 folds

Question: What about the “increase of C50” value ([1]; C1221 with two methyl groups vs unmethylated) of the same molecule?
Answer: more than 10 folds

Question: What about the “meganuclease concentration at which C1221 cleaved product leveled up” value ([1]; unmethylated C1221) of the same molecule?
Answer: about 500 nM

Question: And the EC50 ([1]; unmethylated C1221, 1 hour at 37° C., read-out: C50 (concentration of meganuclease needed to cleave 50% of C1221))?
Answer: 100 to 150 nM

B2: CAPNS1: engineered heterodimer meganuclease (SEQ ID NO: 62+SEQ ID NO: 63) cleaving the 5′ UTR of the human CAPNS1 gene (protein)
chain 1: MANTKYNKEFLLYLAGFVDSDGSIIAQIKPRQSYKFKHQLRLTFYVTQKTQRRWFLDKLVDEIGVGYVEDSGSVSRYVLSEIKPLHNFLTQLQPFLKLKQKQANLVLKIIEQLPSAKESPDKFLEVCTWVDQVAALNDSKTRKTTSETVRAVLDSLSEKKKSSPAAD
chain 2: MANTKYNKEFLLYLAGFVDGDGSIVAQIKPNQRAKFKHQLSLTFQVTQKTQRRWLLDKLVDEIGVGYVQDSGSVSNYRLSEIKPLHNFLTQLQPFLKLKQKQANLVLKIIEQLPSAKESPDKFLEVCTWADQIAALNDSKTRKTTSETVRAVLDSLSEKKKPSPAAD
Question: B2 was tested. Which “mutagenesis, PCR fragments carrying a mutation” value ([2]; 0 μM 5-aza-2′-deoxycytidine) did it give?
Answer: 6.10% ± 0.43

Question: What about the “mutagenesis, PCR fragments carrying a mutation” value ([2]; 0 μM 5-aza-2′-deoxycytidine, listed as CAPNS1 meganuclease) of the same molecule?
Answer: 6.1%±0.43

Question: What about the “mutagenesis, PCR fragments carrying a mutation” value ([2]; 0.2 μM 5-aza-2′-deoxycytidine) of the same molecule?
Answer: 6.55% ± 0.77

Question: What about the “mutagenesis, PCR fragments carrying a mutation” value ([2]; 0.2 μM 5-aza-2′-deoxycytidine, listed as CAPNS1 meganuclease) of the same molecule?
Answer: 6.55%±0.77

Question: And the “mutagenesis, PCR fragments carrying a mutation” value ([2]; 1 μM 5-aza-2′-deoxycytidine)?
Answer: 4.34% ± 0.95

Question: What about the “mutagenesis, PCR fragments carrying a mutation” value ([2]; 1 μM 5-aza-2′-deoxycytidine, listed as CAPNS1 meganuclease) of the same molecule?
Answer: 4.34%±0.95

B3: RAG: engineered single chain meganuclease (SEQ ID NO: 61) designed to cleave a sequence in the human RAG1 gene (protein)
chain: MANTKYNEEFLLYLAGFVDGDGSIIAQINPNQSSKFKHRLRLTFYVTQKTQRRWFLDKLVDEIGVGYVRDSGSVSQYVLSEIKPLHNFLTQLQPFLELKQKQANLVLKIIEQLPSAKESPDKFLEVCTWVDQIAALNDSKTRKTTSETVRAVLDSLSGKKKSSPAAGGSDKYNQALSKYNQALSKYNQALSGGGGSNKKFLLYLAGFVDSDGSIIAQIKPRQSNKFKHQLSLTFAVTQKTQRRWFLDKLVDRIGVGYVYDSGSVSDYRLSEIKPLHNFLTQLQPFLKLKQKQANLVLKIIEQLPSAKESPDKFLEVCTWVDQIAALNDSKTRKTTSETVRAVLDSLSEKKKSSP
Question: What does the source list for B3?
Answer: mutagenesis, PCR fragments carrying a mutation ([3]; 0 μM 5-aza-2′-deoxycytidine): 0.76% ± 0.02; mutagenesis, PCR fragments carrying a mutation ([3]; 0 μM 5-aza-2′-deoxycytidine, listed as RAG meganuclease): 0.75%±0.02; mutagenesis, PCR fragments carrying a mutation ([3]; 0.2 μM 5-aza-2′-deoxycytidine): 0.71% ± 0.17; mutagenesis, PCR fragments carrying a mutation ([3]; 0.2 μM 5-aza-2′-deoxycytidine, listed as RAG meganuclease): 0.71%±0.17; mutagenesis, PCR fragments carrying a mutation ([3]; 1 μM 5-aza-2′-deoxycytidine): 0.59% ± 0.3; mutagenesis, PCR fragments carrying a mutation ([3]; 1 μM 5-aza-2′-deoxycytidine, listed as RAG meganuclease): 0.59%±0.31
